Test results from publication PMC3702382 (Biochemistry, 2013).

Molecular target: the molecule itself
Test: TOXCAT

NRASLALTLLLLAILVWLNYSLWFGILIN (domain or fragment) [FtsB transmembrane domain TOXCAT construct, Gln 16 to Asn]
CAT activity, % of WT: 67%

NRASLALTLLLLAILVWLMYSLWFGILIN (domain or fragment) [FtsB transmembrane domain TOXCAT construct, Gln 16 to Met]
CAT activity, % of WT: 22 % of WT
